The target of this assay is biotinylated AP-neuroligin-1 on rat hippocampal neurons (mouse) (UniProt Q99K10). The assay can be described thus: cell-based or functional assay.

Chain of monovalent streptavidin A1D3 conjugated to Alexa Fluor 568 (designed binder) (chain): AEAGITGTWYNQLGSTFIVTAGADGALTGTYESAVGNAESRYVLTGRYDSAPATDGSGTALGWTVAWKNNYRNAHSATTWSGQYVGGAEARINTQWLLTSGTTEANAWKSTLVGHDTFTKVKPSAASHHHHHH
Chain of monovalent streptavidin A1D3 conjugated to Alexa Fluor 568 (designed binder) (chain): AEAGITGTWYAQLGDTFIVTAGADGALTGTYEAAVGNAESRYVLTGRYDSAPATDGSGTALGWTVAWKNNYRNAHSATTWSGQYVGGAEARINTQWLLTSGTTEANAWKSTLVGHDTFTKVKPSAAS

Regarding “monovalent streptavidin A1D3 conjugated to Alexa Fluor 568 (designed binder)”, the clusters/µm of labeled AP-neuroligin-1 after a two hour incubation worked out at 0.087 clusters/µm.
As for “Alexa Fluor 568-conjugated wild-type streptavidin (Molecular Probes) (from UniProt P22629 37-163)”, the figure is 0.266 clusters/µm.

These data come from patent publication US20070105162A1, “Monovalent avidin and streptavidin compositions” (Massachusetts Institute of Technology, priority 2005, published 2007).
